Results taken from patent US20050058639A1 (AstraZeneca / MedImmune, published 2005).

T1: recombinant human MCP-2 (human, UniProt P80075 24-99)
T1 construct: also called rhMCP-2
T1 sequence (looked up): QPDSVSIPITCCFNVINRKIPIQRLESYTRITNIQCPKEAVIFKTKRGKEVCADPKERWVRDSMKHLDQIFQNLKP

T2: human GRO/MGSA (human, UniProt P09341 35-107)
T2 construct: also called hGRO/MGSA; GRO-alpha
T2 sequence (looked up): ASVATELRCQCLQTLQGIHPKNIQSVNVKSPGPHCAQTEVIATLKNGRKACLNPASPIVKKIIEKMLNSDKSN

T3: human MIP-1-alpha (human, UniProt P10147 24-92, limits assumed)
T3 construct: also called hMIP-1-alpha
T3 sequence (looked up): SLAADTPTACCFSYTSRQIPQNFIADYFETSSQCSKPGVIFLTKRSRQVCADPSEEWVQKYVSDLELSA

T4: human RANTES (human, UniProt P13501 24-91)
T4 construct: also called hRANTES
T4 sequence (looked up): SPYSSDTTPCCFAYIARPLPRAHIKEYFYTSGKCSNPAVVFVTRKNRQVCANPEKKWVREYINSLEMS


Tests used:
[1] = target: T5, human monocyte chemo-attractant protein-1 (MCP-1) (human, UniProt P13500 24-99); assay: ELISA, coated antigen
T5 construct: 76-residue recombinant protein from E. coli, bought (PeproTech); also called hMCP-1(MCAF); human MCP-1
Experimental: (§1) Determining cross-reactivity of anti-MCP-1 antibodies with other chemokines. ELISA plates (Fisher Cat. No. 12-565-136) were coated with 50 μl/well of MCP-1, MCP-2, MCP-3, MCP-4, RANTES, GRO-alpha, MIP-1 alpha, eotaxin, rat MCP-1 and mouse JE (2 μg/ml) in coating buffer (0.1 M carbonate buffer, pH 9.6, NaHCO₃ 8.4 g/L, then incubated at 4° C. overnight. After incubation, the plates were washed with washing buffer (0.05% Tween 20 in PBS) three times. 200 μL/well blocking buffer (0.5% BSA, 0.1% Tween 20, 0.01% Thimerosal in 1×PBS) were added and the plates incubated at room temperature for 1 hour. After incubation, the plates were washed with washing buffer three times. 50 μL/well of hybridoma supernatants, and positive and negative controls (positive control was anti-MCP-1 antibody purchased from R&D Sciences, and negative control was an antibody to Keyhole Limpet Hemocyanin produced at Abgenix) were added and the plates incubated at room temperature for 2 hours. After incubation, the plates were washed three times with washing buffer. […] After incubation, the plates were washed three times with washing buffer and 100 μL/well of TMB (BioFX Lab. Cat. #TMSK-0 100-01) was added and the plates allowed to develop for about 10 minutes.

[2] = target: T6, recombinant mouse JE/MCP-1 (mouse, UniProt P10148 24-148); assay: ELISA, coated antigen
T6 construct: also called rmJE/MCP-1
Experimental: as §1

[3] = target: rat MCP-1 (rat, UniProt P14844 24-148); assay: ELISA, coated antigen
Experimental: as §1

[4] = target: T1, recombinant human MCP-2; assay: ELISA, coated antigen
Experimental: as §1

[5] = target: T7, recombinant human MCP-3 (human, UniProt P80098 24-99); assay: ELISA, coated antigen
T7 construct: also called rhMCP-3
Experimental: as §1

[6] = target: T8, recombinant human MCP-4 (human, UniProt Q99616 24-98, limits assumed); assay: ELISA, coated antigen
T8 construct: also called rhMCP-4
Experimental: as §1

[7] = target: T2, human GRO/MGSA; assay: ELISA, coated antigen
Experimental: as §1

[8] = target: T3, human MIP-1-alpha; assay: ELISA, coated antigen
Experimental: as §1

[9] = target: T4, human RANTES; assay: ELISA, coated antigen
Experimental: as §1

[10] = target: T9, human eotaxin (human, UniProt P51671 24-97); assay: ELISA, coated antigen
T9 construct: also called hEotaxin
Experimental: as §1

[11] = target: T5, human monocyte chemo-attractant …; assay: cell-based or functional assay
[12] = target: T5, human monocyte chemo-attractant …; assay: ELISA, hybridoma supernatant on coated MCP-1
Experimental: Selection of candidate antibodies for ELISA. After 14 days of culture, hybridoma supernatants were screened for MCP-1-specific monoclonal antibodies. The ELISA plates (Fisher, Cat. No. 12-565-136) were coated with 50 μl/well of MCP-1 (2 μg/mL) in Coating Buffer (0.1 M Carbonate Buffer, pH 9.6, NaHCO₃8.4 g/L), then incubated at 4° C. overnight. After incubation, the plates were washed with Washing Buffer (0.05% Tween 20 in PBS) three times. 200 μl/well Blocking Buffer (0.5% BSA, 0.1% Tween 20, 0.01% Thimerosal in 1× PBS) were added and the plates incubated at room temperature for 1 hour. After incubation, the plates were washed with Washing Buffer three times. 50 μL/well of hybridoma supernatants, and positive and negative controls were added and the plates incubated at room temperature for 2 hours.
The positive control used throughout was XMG2 MCP-1 Group 1, footpad N160-7 and the negative control was XMG2 KLH Group 1, footpad L627-6. After incubation, the plates were washed three times with Washing Buffer. […] In the secondary screen, three sets of samples (positives in first screening) were screened, one set for hIgG detection, one set for hKappa detection, and one set for hlambda detection. After incubation, the plates were washed three times with Washing Buffer. 100 μL/well of TMB (BioFX Lab. Cat. #TMSK-0100-01) were added and the plates allowed to develop for about 10 minutes (until negative control wells barely started to show color), then 50 μL/well stop solution (TMB Stop Solution (BioFX Lab. Cat. #STPR-0100-01) were added and the plates read on an ELISA plate reader at wavelength 450 nm. The OD readings from the positive wells are presented in Table 9.

T7 sequence (P80098 24-99 limits assumed): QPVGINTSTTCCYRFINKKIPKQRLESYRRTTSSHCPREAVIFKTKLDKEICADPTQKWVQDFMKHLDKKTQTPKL
rat MCP-1, sequence (P14844 24-148 limits assumed): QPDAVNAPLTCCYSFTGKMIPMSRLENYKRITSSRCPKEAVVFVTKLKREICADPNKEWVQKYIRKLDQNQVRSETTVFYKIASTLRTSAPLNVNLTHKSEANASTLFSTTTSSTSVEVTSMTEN
T5 sequence (P13500 24-99): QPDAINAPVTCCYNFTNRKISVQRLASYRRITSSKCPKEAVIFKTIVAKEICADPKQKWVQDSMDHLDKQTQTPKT

| ELISA OD [1] [OD450] | ELISA OD [2] [OD450] | ELISA OD [3] [OD450] | ELISA OD [4] [OD450] | ELISA OD [5] [OD450] | ELISA OD [6] [OD450] | ELISA OD [7] [OD450] | ELISA OD [8] [OD450] | ELISA OD [9] [OD450] | ELISA OD [10] [OD450] | IC50 Ca++ Flux [11] [µg/mL] | IC50 Chemotaxis [11] [µg/mL] | ELISA OD-MCP-1 [12] [OD450] | Binder |
| --- | --- | --- | --- | --- | --- | --- | --- | --- | --- | --- | --- | --- | --- |
| 0.948 | 0.041 | 0.05 | 0.043 | 0.046 | 0.051 | 0.044 | 0.045 | 0.049 | 0.045 | 0.12 | 0.89 | 4 | anti-MCP-1 mAb 3.15.1 (antibody, human IgG4, kappa, V domains shown) VH: QVQLVQSGAEVKKPGASVQVSCKVSGDTLTELSMHWVRQAPGKGLEWMGGFDPEDGETIYARKFQGRVTMTEDTSTDTVYMELSSLRSEDTAVYFCATDSRGYSGYFDNWGQGTLVTVSS VL: not shown |
| 0.71 | 0.054 | 0.045 | 0.845 | 0.167 | 0.042 | 0.042 | 0.043 | 0.04 | 0.306 | 0.3 | 0.25 | 3.63 | anti-MCP-1 mAb 3.10.1 (antibody, V domains shown) VH: QVQLVQSGAEVKKPGASVKVSCKVSGYTLTELSMHWVRQAPGKGLEWMGGFDPEDGETIYAQKFQGRVMMTEDTSTDTAFMDLSSLRSEDTAVYYCATDDMLTPHYLYFGMDVWGQGTTVTVSS VL: DIQMTQSPSSLSASVGDRVTITCRASQGIRNDLGWYQQKPGKAPKRLIYATSSLQSGVPSRFSGSGSGTEFTLTISSLQPEDFATYYCLQHNTYPFTFGPGTKVDIKR |
| 0.549 | 0.044 | 0.046 | 0.045 | 0.05 | 0.045 | 0.046 | 0.046 | 0.045 | 0.043 | 1.3 | 1.4 | 4 | anti-MCP-1 mAb 3.14.1 (antibody, V domains shown) VH: EQSGPGLVKPSQTLSLTCAISGDSVSSNSAAWNWIRQSPSRGLEWLGRTYYRSKWYSDHAVSVRSRITIYPDTSKNQFSLQLNSVTPEDTAVYYCARDRISGTYVGMDVWGQGTTVTVSS VL: not shown |
| 1.23 | 0.044 | 0.058 | 0.04 | 0.045 | 0.045 | 0.049 | 0.043 | 0.04 | 0.043 | 0.18 | 0.29 | 0.998 | anti-MCP-1 mAb 1.18.1 (antibody, human IgG2, kappa, V domains shown) VH: QVQLVQSGAEVKKPGASVKVSCKVSGYTLTELSMHWVRQAPGKGLEWMGGFDPEDGETIYAQKFQGRVTMTEDTSTDTVYMELSSLRSEDTAMYYCATREFWTGYFDHWGQGTLVTVSS VL: not shown |
| 1.15 | 0.044 | 0.053 | 0.042 | 0.05 | 0.047 | 0.065 | 0.055 | 0.046 | 0.048 | 0.24 | 0.51 | 3.86 | anti-MCP-1 mAb 3.4.1 (antibody, V domains shown) VH: QVQLVQSGAEVKKPGASVKVSCKVSGYTLTELSMHWVRQAPGKGLEWMGGFDPEDGETMYAQKFQGRVTMTEDTSTDTAYMELSSLRSEDTAVYYCATDDFWSGYFDYWGQGTLVTVSS VL: DIVMTQSPDSLAVSLDERATINCKSSQSVLYSPNQKNYLVWYQQKPGQPPKLLLYWASIRESGVPDRFSGSGSGTDFTLTISSLQAEDVAVYYCQQSYFTPWTFGQGTKVEIKR |
| 0.957 | 0.049 | 0.055 | 0.042 | 0.046 | 0.046 | 0.045 | 0.046 | 0.049 | 0.041 | 0.27 | 0.75 | 3.38 | anti-MCP-1 mAb 4.5.1 (antibody, V domains shown) VH: QVQLVQSGAEVKKPGASVKVSCKVSGYTLTELSMHWVRQAPGKGLEWMGGFDPEDGETIYAQKFQGRVTMTEDTSTDTAYMELSSLRSEDTAVYYCATDDFWSGYFDYWGQGTLVTVSS VL: not shown |
| 1.16 | 0.041 | 0.044 | 0.056 | 0.048 | 0.055 | 0.044 | 0.04 | 0.04 | 0.044 | 0.18 | 0.24 | 3.47 | anti-MCP-1 mAb 1.2.1 (antibody, V domains shown) VH: QVQLVQSGAEVKKPGASVKVSCKVSGYTFTELSMHWVRQAPGKGLEWMGGFDPEDGETSYAQKFRGRVTMTEDTSTDTAHMELSSLRSEDTAVYYCATNDFWSGYFDYWGQGTLVTVSS VL: DIQMTQSPSSVSASVGDRVTITCRASQGIDIYLAWYQQKPGKAPKLLINAASSLQNGVPSRFGGSGSGTDFTLTISGLQPEDFATYYCQLTYFFPWTFGQGTKVEIKR |
| 0.633 | 0.042 | 0.046 | 0.049 | 0.043 | 0.043 | 0.043 | 0.043 | 0.042 | 0.043 | 0.16 | 0.4 | 3.92 | anti-MCP-1 mAb 3.16.1 (antibody, V domains shown) VH: QVQLVQSGAEVKKPGASVKVSCKVSGYTLTDLSMHWVRQAPGKGLEWMGGFDPEDGETIYAQKFQGRVTMTEDTSSDTAYMELSSLRSEDTAVYYCATHEFWSGYFDYWGQGTLVTVSS VL: DIVMTQSPDSLAVSLGERATINCKSSQSVLFSSNNKSYLTWYQQKPGQPPKLLIFWASIRESGVPDRISGSGSGTDLTLTISSLQAEDAAVYYCQQYYSSPWTFGQGTKVEIKR |
| 1.13 | 0.042 | 0.062 | 0.042 | 0.046 | 0.044 | 0.046 | 0.046 | 0.046 | 0.042 | 0.41 | 0.58 | 2.06 | anti-MCP-1 mAb 1.14.1 (antibody, V domains shown) VH: QVQAEQSGPGLVKPSQTLSLTCAISGDSVSSYSAAWNWIRQSPSRGLEWLGRTYYRSKWYSDHAVSVRSRITIYPDTSKNQFSLQLNSVTPEDTAVYYCARDRISGTYVGMDVWGQGTTVTVSS VL: not shown |
